From the nanobody polyreactivity screen of Harvey et al. (2022)

Experiment: yeast display, Sf9 membrane polyspecificity reagent, FACS + sequencing; frameworks hold sequencing errors
Procedure, shortened: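 Galactose-induced (36–48 hours) yeast carrying a synthetic nanobody display library were exposed to 10% biotinylated, detergent-solubilized Sf9 membrane reagent at 4 °C for 1 hour. FACS followed streptavidin microbead enrichment, using low and high (top ~1%) gates for expression (anti-HA) and reagent binding (streptavidin). Colony PCR, MiSeq 2 × 250 sequencing and CDR-length filtering followed. Labels for polyreactivity reflect the gate of origin.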

Row | Sequence | polyreactivity (PSR sort gate)
1 | QVQLVESGGGLVQAGGSLRLSCAASGGTFVYNAMGWNRQAPGKERELVAAISRSGSRTYYADSVKGRFTISRDNAKNTVYLQMNSLKPEDTAVYYCAARGYYPEYNHWGQGSQVTVSS | high polyreactivity
2 | QVQLVESGGGLVQAGGSLRLSCAASGSTFTVNTMGWYRQAPGKERELVDAISFGGGPTYYADSVKGRFTISRDNAKNTVYLQMNSLKPDDTAVYYCAARGYLWHARKYYYWGQGTQVTVSS | high polyreactivity
3 | QVQLVESGGGLVQAGGSLRLSCAASGFIFDFYTMGWYRQATGKESELVAAITWSGDSTYYADSVKGRFTISRDNAKNTVYLQMNSLKPEDTAVYYCAADWWGVWYFDYDYWGQGTQVTVSS | low polyreactivity
4 | QVQLVESGGGLVQAGGSLRLTCAASGRNFQVYAMGWYRQAPGKERELVAGITRAGSTYYADSVKGRFTISRDNAKNTVYLQLNSLKPEDTAVYYCAASRWHGYNYWGQGTQVTVSS | high polyreactivity
5 | QVQLVESGGGLVQAGGSLRLSCAASGRIFRRYAMGWYRQAPGKERELVAAITRSGGSTYYADSVKGRFTISRDNAKNTVYLQMNSLKPEDTAVYYCAARQVGRYYYLSRYYYWGQGTQVTVSS | high polyreactivity
6 | QVQLVESGGGLVQAGGSLRLSCAASGRIFTVYALGWSRQAPGKERELVAAISRGRSTYADSVKGRFTISRDNAKNTVYLQLNSLKPEDTGVYYCAAVNFRKGEDYWGQGTQVTVSS | high polyreactivity
7 | QVQLVESGGGLVQAGGSLRLSCAASGSIFQYNTMGWYRQAPGKERELVAAINWSGVSTYYADSVKGRFTISRDNAKNTVYLQMNILKPEDTAVYYCNARRYVDGSYIYDRGYWGQGTQVTVSS | high polyreactivity
8 | QVQLVESGGGLVQAGGSLRLSCAASGRIFRKNVMGWYRQAPGKERELVATIRTGGTTNYADSVKGRFTISRDNAKNTVYLQMNSLKPEDTAVYYCAADRGGRAGFDYWGQGTQVTVSS | high polyreactivity
9 | HVQLVESGGGLVQAGGSLRLSCAASGFTSYLYTMGWYRQAPGKERELVAAISNSGGNTYYADSVKGRFTISRDNAKNTVYLQMNSLKPEDTAVYYCAARLFAAKYRYGYWGQGTQVTVSS | high polyreactivity
10 | QVQLVESGGGLVQAGGSLRLSCAASGLIFITYAMGWYRQAPGKERELVATITLRGGSTYYADSVKGRFTISRDNAKNTVYLQMNSLKPEDTAVYYCAADVGYWGRSSGYPSDDYDYWGQGTQVTVSS | low polyreactivity
11 | QVQLVESGGGLVQAGGSLRLSCAASGNNLLGYAMGWYRQAPGKEREWVAAISSSGGRTYYADSVKGRFTISRDNAKNTVYLQMNSLKPEDTAVYYCAAYTYSAGGYWGQGTQVTVSS | high polyreactivity
12 | QVQLVESGGGLVQAGGSLRLSCAASGITFYYYDMGWYRLAPGKERELVAAISWSGGRTYYADSVKGRFTISRDNEKNTVYLQMNSLKPEDTAVYYCASGYYVYHFVSLYGGDYWGQGTQVTVSS | high polyreactivity
13 | QVQLVESGGGLVQAGGSLRLSCAASGRIFGHYAMGWYRQAPGKERELVAAISQSGTNTYYADSVKGRFTISRDNAKNTVYLQMNSLKPEDTAVYYCAAKPPRRYQLMDYWGQGTKVTVSS | high polyreactivity
14 | QVQLVESGGGLVQAGGSLRLSCAASGSTFYIYAMGWYRQAPGKERELVARISGSGGSTYYADSVKGRFTISRDNAKNTVYLQMNSLKPEDTAVYYCAADYIYKYYQYYAFPYYRYDYWGQGTQVTVSS | low polyreactivity
15 | QVQLVESGGGLVQAGGSLRLSCAASGSTFARNVMGWYRHAPGKERELVAAITRSGGSTYYADSVKGRFTISRDNAKNTVYFQMNSLKPEDTAVYYCNRDFRGLAYSDRYDYWGQGTQVTVSS | low polyreactivity
16 | QVQLVESGGRLVQAGGSLRLSCAASGSIFYYYAKGLYRKAPVTARELVAAISTRGGRTYYADSVKGRFTISRDNAKTTVYLQMNSLKPEDTAVYYCNVPYYLPSYLSGYDYWGQGTQVTVSS | low polyreactivity
17 | QVQLVESGGGLVQAGGSLRLSCAASGFIIVRNALGWYRQAPGKERELVAAMRWSGGSTYYADSEKGRFTISRDNSKNTDYLQMNSLKPEDTAVYYCAARLWLKVQYLRFFVYDYWGQGTQVTVSS | low polyreactivity
18 | QVQLVESGGGLVQAGGSLRLSCAASGSTFQGNAMGWYRQAPGKERELVAAISSDGSTDYADSVKGRFTISRDNAKNTVYLQMNSLKPEDTAVYYCNRVSPGPDADLEFDYWGQGTQVTVSS | low polyreactivity
19 | QVQLVESGGGLVQAGGSLRLSCAASGSIFRSYAKGWYRQAPGKERELVAAISSSGGRKYYADSVKGRFTISRDNAKNTVYLQMNSLKPEDTAVYYCAAYGAGGYKYDYWGQGTQVTVSS | low polyreactivity
20 | QVQLVESGGGLVQAGCSLRLSCAASGRTFYTVYARGWYRQAPGKERELVAAITKDGTTTYYADSVKGRFTISRDNAKNTVYIEMNSLKQEDTAVYYCNADVSQPWGGGEYNYWGQGTQVTVSS | high polyreactivity
21 | QVQLGESGGGLVQAGGSLRLSCAASGRTFHGYAMGWYRQAPGKERELVARINWSDGRTYYADSVKGRFTISRDNAKNTVYLQMNSLKPEDTAVYYCAADKTVSYAPAWYYYWGQGTQVTVSS | low polyreactivity
22 | QVQLVESGGGLVQAGGSLRLSCAPSGSIFRWYAMGWYRQAPGKERELVAAITSGGSTYYADSVKGRFTISRDNAKNTVYVQMNSLKPEDTAVYYCNAAKLASHTYDYWGQGTQVTVSS | low polyreactivity

Row | Sequence | polyreactivity (PSR sort gate)
23 | QVQLQESGRGLVQAGGSLRLSCAASGSISILQSMGWYRQAPGKERELVAGINWGATTYYADSVKGRLTTSRDYAKNTVYLQMNSLKPEDTAVYYCAVPTYYTYPLLYWGQGTQVTVSS | low polyreactivity
24 | QVQLVESGGGLVQAGGSLRLSCSASGFNFRRYAMGLYRQAPGKERELVAVITSGGSTYYADSVKGRFTISRDNAKNTVYLQMNSLKTEDTAVYYCAARYYWYSQEYVLSSWWGDYCGQGTQVTVSS | high polyreactivity
25 | QVQLVESGGGLVQAGGSLRLSCAASGSTFVGNAMGWYRQAPGKERELVAAITGGGGSTYYADSVKGRFTISRDNAKNSVYLQMNSLKPEDTAVDYCARDRTDYYVWYVRYYYWGQGTQVTVSS | low polyreactivity
26 | QVQLVDSGGGLVQAGGSLRLSCAASGSIFQYYAMGWYRQAPGKEMELVAAITSVSSTSYADSVKGRFTISRDNAKNTVYLQMNSLKPEDTAVYYCDAAFRRGLLKMDYWGQGTQVTVSS | low polyreactivity
27 | QVQLVESGGGLVQAGGSLRLSCAASGSTFYTYAMGWYRQAPGKERELVAAISSGGGTTYADSVKGRFTISRDNAKNTVYLQMNSLKPEDTAVYYCAAVTRDYRNDRRRQRYYYWGQGTQVTVSS | high polyreactivity
28 | QVQLVESVVGLVQAGGSLRLSCAASGRIFYRYAMGWYRQAPGKERELVASITRSGITHYADSVKGRFTISRDNAKNTVYLQMNSLKPEDTAVYYCYARRGSPAPYDYWGQGTQVTVSS | high polyreactivity
29 | QVQLEESGGGLVQAGGSLRLSCAASGFTFAYYAMGWYSQAPGKERELVAAISRSGGRTNYADSVKGRFTISRDNAKNTVYLQMNSLKPEETAVYYCNKQQTPRYWWSPYGGYDYWGQGTQGTVSS | high polyreactivity
30 | QVQLVESGGGLVQAGGSLRLSCAASGRTFRVYAMGWYRQAPGKERELVAAIRRSGGSTYYADSVKGRFTISRDNAKNTVYLQMNSLKPEDTAVYYCAAYFYYWGSTFVRYEYWGLGTQVTVSS | high polyreactivity
31 | QVQLVESGGGLVQAGGSLRVSCAASGYIFYGNTMGWYRQAPGKEWELVAAISYDGGSTYYADSVKGRFTISRDNAKNTVYLQMNSLKPEDTAVYYCAADTFSFRWSDYWGQGTQVTVSS | low polyreactivity
32 | QVKLVESGVGLVQAGGSLRLSCGASGFIFVRYAIVWSRQAPGKERDLVAAISGSGGRTYYAYSVKGRFTISRDNAKNTVYLKMNSLKPEDTSVYYCNVKSYTYGYLPYDYWGQGTQVTVSS | high polyreactivity
33 | QVQLVESGGGLVQAGGSLRLSCAASGRIFGYYAMGWYRQAPGKERELVAAISYSGGSTYYADSVKGRFTISRDNAKYTVFLQMNSLKPEDTAVYYCNKVYSIRGYWGQGTQVTVSS | high polyreactivity
34 | QVQLVESGGGLVQAGGSLRLSCAASGSTWIYAMGWYRQAPGKERELVAAISGSGDRTYYADSVKGRFTISRDNAKNTVYLLMNSLQPEDTAVYFCATVYYKSGKYDYWGQGTQVTVSS | high polyreactivity
35 | QVQLVESGGGLVQAGGSLRLSCAASGSIFRSNAMGWYRQAAGKERELVAAIDYSGTSTTYADSVKGRFTISRDNAKNTVYLQMNSLKPEDTAVYYCNADGYYRGYWSGYEYWGQGTQVTVSS | low polyreactivity
36 | QVQLVESGGGLVQAGGSLRLSCAASGITVRLYAMGWYRQAPGKERELVATIDWSGDSTYYADSVKGRFTISRDNAKNTVYLQMHSLKPEDTAVYYCNAVYVPVGINLGEYDYWGQGTQVTVSS | low polyreactivity
37 | QVQLVESGGGLVQAGGSLRLSCAASGRTLEIYTMGLNRQAPGKERELVAAISGGSTYYADSVKGRFTISRDNSKNTVYLQMNSLKPEDTAVYYCAARPYVFRYHRWTVDWRYDYWGQGTQVTVSS | low polyreactivity
38 | QVQLVESGGGLVQAGGSLRLSCAASGSTFGGNAMGWYRQAPGKERELVAVISKRGGSTYYADSVKGRFTISRDYAKNTVYLQMNSLKPEDTAVYYCAATYSRYWSPTYDYWGQGTQVTVSS | high polyreactivity
39 | QVQLVESGGGLVQAGGSLRLSCAASGFNYYRYVMVWYRQAPGKERELVAAITTSGGSTYYADSVKGRFTISRDNAKNTVYLQMNSLKPEDTAVYYCAAVYIPSRQWYDYWGQGTQVTVSS | high polyreactivity
40 | QVQHVESGGGIVQAGGSLRLSCAASGSTFWRNAMGWYRQAPGKEREFVASISWSGGGTYYADSVKGRFTISRDNEKNTVYLQMNSLKPEDTAVYYCAATPDWSYWYGNGDYDYWGQVTQVTVSS | low polyreactivity
41 | QVQLVESGGGLVQAGGSLRLSCAASGSIFRVYALGWSRQAPGKERELVAAISSSGGSTYYADSVKGRFTISRDNAKNTVYLQMNSLKPEDTAVYYCAAEYDGPYTWVDYYYHYGYWGQGTQVTVSS | low polyreactivity
42 | QVQLVESGGGLVQAGGSLRLSCAASGSTFYDYDMGWYSQAPGKESELVAAITSGGSTKYADSVKGRFTISRDNAKNTVYLQMNSLKPEDTAVYYCNADSQRPAYWDGYWGQGTKVTVSS | low polyreactivity
43 | QLQLVESGGGLVQAGGSLRLSCAASRSTFKYYAMGWYRQAHGKERELVAAISRRGGSTYYADSVKGRFTISRDNAKNTVYLQMNSLKPEDTAVYYCAADIIRPVTVDYWGQGTQVTVSS | high polyreactivity
